assay: yeast display, Sf9 membrane polyspecificity reagent, FACS + sequencing; frameworks hold sequencing errors
Procedure, shortened: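 After 36–48 hours of galactose induction, yeast (Saccharomyces cerevisiae BJ5465) displaying a synthetic nanobody library were stained at 4 °C for 1 hour with 10% biotinylated, detergent-solubilized Sf9 membrane reagent. Streptavidin microbeads enriched the stained cells before FACS sorting into low and high (top ~1%) gates on anti-HA and streptavidin fluorescence. Each clone's polyreactivity label reflects its gate of origin.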

Sequence | polyreactivity (PSR sort gate)
QVHLVESGGGVLQAGVSLRLSCAASGFTFYGNAMGWYRQAAGKERELVAANSGRGGSTYYADSVKGRFTISRDNEKYTVYLHMNSLKPEDTAVYYCDIYVSWPLYYYWGQGTQVTVSS | low polyreactivity
QVHLVESGGGVVQAGGSLRLSCAASGFTFVPYAMGWYRQAPGKETETNADSVKGRFTSSRDNAKNTVYLQMNSLKPEDTAVYYCAAGGYGPYDYWGQGTQVTVSS | low polyreactivity
QVHLVESGGGVVQAGGSRRLSCAASGSIIHDNAMGWYRQAPGKERELVADITWSGGSTYYADSVKGRFTISRDNAKITVYLQMNSLKPEETAVYDCAAGSGHWYYYDFDYWGQGTLVTVSS | high polyreactivity
QVHLVESGGRLVQAGGSLRLSCAASGFIFQWYAMGWYRQAPGKERELVAAINSSGSTNYADSVKGRFTISRDNAKNTVYLQMNSLKPEDTAVYYCAAHWRYGRKFDYWGQGTQVTVSS | high polyreactivity
QVHLVESGGRLVQAGGSLRLSCAASGSTFTINVMGWYRQAPGKERELVADISWSGGSTYYADSVKGRFTISRDNAKNTVYSQMNSLYPVYTAVSYCATDGAYWTYYSWYDYWGQGTQVTVSS | low polyreactivity
QVHLVESGGVLVQAGCSLRLSCSASGSTFDFNAMGWYRQAPGKERELVAAITSGDSTNYADSVQGRFTISRDNAKNTVYLQMNSLKPEDTAVYYCAARYYWKYITSAARRAGSDYWGQGTQVTVSS | low polyreactivity
QVHLVESRGGLVQAGGSLRLSCAASGFIFRWYAMGCYRQAPGKERELVAAISSSSGSTYYADSVKGRFTISRDNAKNTVYLQMNSLKPEDTAVYYCAAESNRRFEGEYWGQGTQVTVSS | high polyreactivity
QVHLVESVGGLVQAGGSLRLICAASGRIFRRYAMGWYIQAPGKEREFVAAISYGGGSTYYADSVKGRFTISRDNAKNTVYLQMNSLKPEDSAVYYCNADVPKSLLLYYPWGYGYWGQGTQVTVSS | low polyreactivity
QVHLVESVGGLVQAGGSLRLSCAASGRTSGANAMGWYRQAPGKERELVAAIRYSVGSTYYADSVKGRFTISRDNAKNTVYLQMISLKPEDTAVYYCAARGYPKRGGYWGQGTQVTVSS | high polyreactivity
QVHLVETGGGLVQAGGSLRLSCAASGSIFFVYAMGCYRPAPGKERELVAAISNDGSTNYADSVKGRFTISRDNAKNTVYLQMNCLIPEDTAVYYCAKDTRTKYDYWGQGTQVTVSS | low polyreactivity
QVHLVQSGGGLVQAGGSLRLSCAASGRIFKFYAMGWYRQAPGKEMELVATISRGGSTYYADSVKGRFTISRDNAKNTVYLQMNSLKPEDTAVYYCAKQRERYYWFGAWSYDYWGQGTQVTVSS | low polyreactivity
QVHLVQTGGGLVQAGGSLRLSCAASGRIFRTNGMGWYRQAPGKERELVAAISSGDSTYYADSVKVRFTISRDNAKNTVYLQMNSLKPEDTAVYYCAADFGRKGGPGYDYWGQGTQVTVSS | low polyreactivity
QVHLYESGGGLVQLGGSLRLSCAASGTIFDYYTMGWYSQAPGKEREFVAAIAYGTNTYYADSVKGRFSISRDNAKHTVFLLLYSLKPEDTAVYYCATVGPRGLYYYWGQGTQVTVSS | high polyreactivity
QVHVVESWGGLVQAGGSLSLSCAASGLIIWMYTMGWYRQAPWKERELVAAIDWSGGSTYYADSVKGRFTISRDNAKNTVYLQMNSLKPEDTAVYYCAADPEPSYRFDYWGQGTQVTVSS | low polyreactivity
QVKHVESGGGLVQAGGSLRLTCAASGSIFYRNAMGWYRQAPGKERELVAGISRRGGSTYYADSVKGRFTMSRDNAKNTVYLQMNSLKPEDTAGYYCAADFAWVRLTYGYCGQGTQVTVSS | low polyreactivity
QVKIVESGGGLVQAGGSLRLSCAASGSTYYYYSMGWYRQAPGKERELVAAITGSGTSTYYADSVKGRFTISRDNAKNTVYLQMNSLKPEYTAVYYCAAEYPWYYYIDVSYTDYGYWGQGTQVTVSS | high polyreactivity
QVKLEDSGGGLVQAGGSLRLSCAASGSTFEKYVMGWYRQAPGKERELVAAITYSGDSTYYADSVKGRFTISRDNAKNTVYLQMNSLKPEDTAVYYCAAKTTRTSIPRKGRGYYYWGQGTQVTVSS | high polyreactivity
QVKLEESGGGLVQAGGSLRLSSAASGYTIGIYAMGWYRQAPGKERELVAAISADGGITYYADSVKGRFTISRDNAKNTVYLQMNSLKPEDTAFYYCNTLVDQDAYAGFRLDYWGQGSQVTVSS | low polyreactivity
QVKLGESGGGLVQAGGSLLLSCAASGRTFWYYTMGWYRQAPGKERELVASITAGSGTTYYADSVKGRFTISRHNAKNTVYFQMYSLKPEDSAGYYCSSKNTPSFFYYDRYDYWGHGTQVTVSS | low polyreactivity
QVKLQGSGGGLAQAGDSLRLSCAASGTIFSEYNNGLVSPGAGQRTRTCCRYWCWGNTYYADSAKGRFTTSRDNAKNSVYLQKNSLKPEDTAVYYCAFNLPYPSRHIYRGQGTQVTVSS | high polyreactivity
QVKLVESAGGLVQAGGSLRLSCAASGSIFPYNVMGWYRQAPGKERELVAAITRRGGSTYYADSVKGRFTISRDNAKNTVYLQMNSLKPEDSAVYYCAAVPYPRGIGYDYWGQGTQVTVSS | high polyreactivity
QVKLVESAGGLVQAGGSLRLSCPASGIIFGLYTMGWYRQAPGKERELVAAISDSGGRTYYADSVKGRFTISRDNVKNTVYFQMNSRKPADTAVYYCATRWPNYGGYYYWGLGTQVTVSS | high polyreactivity

Sequence | polyreactivity (PSR sort gate)
QVKLVESGAGLVQAGGSLRLSCAASGITFYWYAIGWYRPAPGKEMELVADITSSGSSTYYADSVKGRFTISRDNAKNTVYLQMNSLKPEDTAVYYCNARPGRRSLRSRTYDYWGQGTQVTVSS | high polyreactivity
QVKLVESGGGKVQAGGSLRLSCAASGYTFDPNAIGWYRQEPGKERELVAAISRIGGSTYYADSVKGRFTISRDNAKTTLYVQMNSLKPEDTAVYYCAVDWYLTGHWADDYWGQGTQVTVSS | low polyreactivity
QVKLVESGGGLVHAGGSLRLSCSASGRIIGFNAMGVYRQAPGKERELVASIRTTGGSTRYADSVKGRFTISRDNAKNTVSLQMNSLKPEDTAVYYCAARWGKTRWQYNYWGHGTQVTVSS | high polyreactivity
QVKLVESGGGLVKAGGSLRLSCAASGSISDWYAMGWYIQAPGKERELVAAISNSDGSTYYADSEKGRFTISRDNAKNTVYLQMNSLQPEYTAVYYCNASDAHEDRKSEYWGQGTQVTVSS | low polyreactivity
QVKLVESGGGLVPAGGSLRLSCAASGNIFVNYAMRWYRQAPGKERELVASINYNGGITYYADSVKGRFTISRDNAKNTVYLQMNSLKPEDTAVYDCDKDGGGLLRWYTDEYDYWGQGTQVTVSS | low polyreactivity
QVKLVESGGGLVQAGGILRLSCAASGSIIVGNPMGWYRQAPGKERELVAAISRSGGSTYYADSVKGRFTISRDIAKNTVYLQMNSLKPEDTEVYYCASVRKQASGVDYWGQGTQVPVSS | high polyreactivity
QVKLVESGGGLVQAGGRLRLSCAASGFTCNVYAMGLYRQAPGKERELVADISGTGGSTYYADSVKGRFTISRDNAKNTVYLQMNSLKPEDTAVYYCSSGTRNFDFWGQGTQVTVSS | high polyreactivity
QVKLVESGGGLVQAGGSLLLSCAASGRTFYRYAMGWYIQAPGKERELVARISSGGGTYYADSVKGRFTISRDNAKNTVYLQMNSLKPEVTAVYYCNADVYRWSGSYTGWDSWHDYWGQGTQVSVSS | low polyreactivity
QVKLVESGGGLVQAGGSLRLSCAASGFIFPDYAMGWYRQAPGKERELVAAITSSGGRTYYADSVKGRFTISRDNAKNTVYLQMNSLKPEDTAVYYCAARTISPRGYGSDYWGQGTQVTVSS | high polyreactivity
QVKLVESGGGLVQAGGSLRLSCAASGFIFSNNAMGWYRQAPGKERELVAAITSSGGRTYYADSVKGRFTISRDYAKNTVYLQMNSLKPEDSSVYYCAAARYDIMGYWGLGTQVTVSS | high polyreactivity
QVKLVESGGGLVQAGGSLRLSCAASGFTFTWYVMGWYRQAPGKESELVAAISRSGGSKYYADSVKGRFTISRDNAKNTVYLQMNRLKPEDTAVYYCADVGTSSYDYWGQGTQVTVSS | high polyreactivity
QVKLVESGGGLVQAGGSLRLSCAASGGTFTLYAMGWYRQAPGKERELVAAISTSGGSTYYADSVKGRFTISRDNAKNTVYLQMNSLKPEDTAVYYCAAVTRYAGRIRYGYWGQGTQVTVSS | high polyreactivity
QVKLVESGGGLVQAGGSLRLSCAASGIIFTFYSMGRYRQAPGKERELVAAITGSGGSTYYADSVKGRFTISRDNAKNSVYLQMNSLKPEDTAVYYCAADGPYGYYYGHYGYWGHGTQVTVSS | low polyreactivity
QVKLVESGGGLVQAGGSLRLSCAASGITFVSYAMGWYTQAPGKEREFVAAINRSGGSTYYADSVKGRFTISRDNAKNTVYLQMNSLKPEDTAVYYCAARRNLAYYHSGYWGQGTQVTVSS | high polyreactivity
QVKLVESGGGLVQAGGSLRLSCAASGLTFATYAMGWYREAPGKERELVAAISYSGDSTYYADSVKGRFTISRDNAKNTVYLQMNSLKPEDTAVYYCAKRLKRYRSSYKTFKLDYWGQGTQVTVSS | high polyreactivity
QVKLVESGGGLVQAGGSLRLSCAASGNIFRRYTMGWYRQAPGKERELVAAISSGGSTNYADSEKGRFTISRDNAKNTVYLQMNSLKPEDTAVYYCAVSYRSFRYYWERYYSWGQGTQVTVSS | high polyreactivity
QVKLVESGGGLVQAGGSLRLSCAASGRIFVSKAMGWYRQAPGKERELVAAISKRGASTYYADSVKGRFTISRDKAKNPVYLQINSLKPEDTEVYYCNVVTTGGPNYDYWGQGTQVTVSS | high polyreactivity
QVKLVESGGGLVQAGGSLRLSCAASGRTFRYNAMGWYRQEPGEERELVASITSGGSTNYADSVKGRFTISRDNAKNTVYLQMNRLKPEDTAVYYCAADERRPYWQHCIGSGRPFDYWGQGTQVTVSS | low polyreactivity
QVKLVESGGGLVQAGGSLRLSCAASGRTFVWNAMGWYRQAPGKERELVAAISSSGTSTYYADSVKGRFTISRDNAKNTVYLQMNSQKPEDTAVYYCAKDLLYQPTIRDYWGQGTQVTVSS | low polyreactivity
QVKLVESGGGLVQAGGSLRLSCPASGSTFVLNAMGWYRQAPGKERELVAAITWSGASTYYADSVKGRFTISRDNAKNTVYLQMNSLKPEDTAVYYCANDIPTDYKDVNYWGQGTQVTVSS | low polyreactivity
QVKLVESGGGLVQAGGSLRLSCSASGSIITHNTMVWYRQAPGKERELVASIDSGASTNYADSVKWRFTISRDNAKNSVYLLMNSLKPEDTAVYYCAADDANFRYRDDYWGQGTQVTVSS | low polyreactivity
